# Experimental data from US20260258141A1 (BIOCYTOGEN PHARMACEUTICALS BEIJING, published 2026).
# Changes are numbered by the printed parent chain.
# B1: anti-IGF1R antibody 12A4 (antibody, V domains shown)
# VH: EVQLVQSGGGEIRPGGSLRLSCAASGFTFADYGMSWVRQAPGEGLEWVSEIDWTGGSKLYADSVKGRFTISRDNAKNSLFLQMNSLRAEDTALYYCVRDRGAVSPKYYYYGMDVWGQGTTVTVSS
# VL: EIVLTQSPSSLSASVGDRVTITCRASQGIRNDLGWYQQKPGKAPKRLIYAASRLQSGVPSRFSGSGSGTDFTLTISSLQPEDFATYYCLQHNSYPYTFGQGTKLEIK
# B2: anti-IGF1R antibody 10G1 (antibody, human IgG1, V domains shown)
# VH: QVQLVESGGGLVKPGGSLRLSCAASEFTFSDYYMSWIRQSPGKGLEWVSYISNSGSFTNYADSVKGRFTISRDNAKNSLYLQMNSLRAEDSAIYYCVRDQAPVTSKYYYYGMDVWGQGTTVTVSS
# VL: B1 VL with L33F, G34A, S56R, D70E
# B3: anti-IGF1R antibody 10D1 (antibody, human IgG1, V domains shown)
# VH: QVQLQQSGGGVVRPGGSLRLSCAASGFTFADYGMSWVRQVPGKGLEWVSGINWNGGSTDYADSVKGRFTISRDNAKHSLYLQMNSLRAEDTAFYYCARDRGAVSRRYYYYGMDVWGLGTTVTVSS
# VL: B1 VL with E1A, V3Q, G28D, Q38L, R61G, D70E
# B4: anti-IGF1R antibody 12D1 (antibody, human IgG1, V domains shown)
# VH: B3 VH with Q5V, Q6E, A30D, D73E, N74K, H77N, F93L, A97V, S104T, L117Q
# VL: B1 VL with E1D, V3Q, L4M, G28D, Q38L, D70E
# Biological target: T1, human IGF1R (insulin-like growth factor 1 receptor) on cells (human, UniProt P08069 31-1367)
# T1 sequence (P08069 31-1367 limits assumed): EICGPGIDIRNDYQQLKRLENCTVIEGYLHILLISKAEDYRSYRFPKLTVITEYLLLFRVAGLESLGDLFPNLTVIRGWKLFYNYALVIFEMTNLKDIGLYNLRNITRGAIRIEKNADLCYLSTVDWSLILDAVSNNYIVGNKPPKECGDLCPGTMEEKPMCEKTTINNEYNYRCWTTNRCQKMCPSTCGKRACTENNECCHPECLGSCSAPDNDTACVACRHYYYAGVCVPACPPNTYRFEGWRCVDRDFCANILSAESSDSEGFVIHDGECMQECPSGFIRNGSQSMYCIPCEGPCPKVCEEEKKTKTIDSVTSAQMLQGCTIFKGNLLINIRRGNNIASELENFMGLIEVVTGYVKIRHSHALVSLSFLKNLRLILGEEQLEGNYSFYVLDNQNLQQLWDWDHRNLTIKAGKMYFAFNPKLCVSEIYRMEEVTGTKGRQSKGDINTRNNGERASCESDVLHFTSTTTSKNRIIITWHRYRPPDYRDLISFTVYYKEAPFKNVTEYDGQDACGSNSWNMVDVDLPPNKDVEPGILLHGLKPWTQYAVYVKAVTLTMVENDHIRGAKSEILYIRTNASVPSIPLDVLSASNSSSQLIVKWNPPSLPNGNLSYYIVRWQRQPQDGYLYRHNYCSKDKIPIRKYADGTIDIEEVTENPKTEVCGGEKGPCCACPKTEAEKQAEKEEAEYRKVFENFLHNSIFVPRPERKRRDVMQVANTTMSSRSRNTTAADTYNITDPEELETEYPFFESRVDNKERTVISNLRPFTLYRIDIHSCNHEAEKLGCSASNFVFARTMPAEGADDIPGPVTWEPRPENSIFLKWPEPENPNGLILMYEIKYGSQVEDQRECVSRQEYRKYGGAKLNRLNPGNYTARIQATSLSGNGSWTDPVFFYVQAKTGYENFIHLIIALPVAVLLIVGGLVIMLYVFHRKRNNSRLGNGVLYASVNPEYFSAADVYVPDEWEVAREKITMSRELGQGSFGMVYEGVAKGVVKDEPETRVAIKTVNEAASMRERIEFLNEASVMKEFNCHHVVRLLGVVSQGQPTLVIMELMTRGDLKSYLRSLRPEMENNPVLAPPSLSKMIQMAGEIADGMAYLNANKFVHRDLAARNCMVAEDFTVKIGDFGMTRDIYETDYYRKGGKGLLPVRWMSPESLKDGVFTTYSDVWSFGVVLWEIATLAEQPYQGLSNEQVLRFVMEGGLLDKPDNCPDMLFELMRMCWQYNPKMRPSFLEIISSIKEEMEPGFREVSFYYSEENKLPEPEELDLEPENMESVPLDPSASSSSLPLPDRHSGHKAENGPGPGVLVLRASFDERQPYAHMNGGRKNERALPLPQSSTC
# Experiment: cell-based or functional assay
row,"EC50 of internalization (MFI of pHAb-labelled secondary Fab, NCI-H838 cells) [nM]",Binder
1,0.92,B1
2,1.12,B2
3,0.51,B3
4,0.66,B4

# Biological target: T2, His-tagged human IGF1R protein (ACRO Biosystems Inc., Cat #: IGR-H5229) (human, UniProt P08069 31-932)
# T2 construct: Bought protein; also called hIGF1R-His; not shown: His tag
# T2 sequence (P08069 31-932): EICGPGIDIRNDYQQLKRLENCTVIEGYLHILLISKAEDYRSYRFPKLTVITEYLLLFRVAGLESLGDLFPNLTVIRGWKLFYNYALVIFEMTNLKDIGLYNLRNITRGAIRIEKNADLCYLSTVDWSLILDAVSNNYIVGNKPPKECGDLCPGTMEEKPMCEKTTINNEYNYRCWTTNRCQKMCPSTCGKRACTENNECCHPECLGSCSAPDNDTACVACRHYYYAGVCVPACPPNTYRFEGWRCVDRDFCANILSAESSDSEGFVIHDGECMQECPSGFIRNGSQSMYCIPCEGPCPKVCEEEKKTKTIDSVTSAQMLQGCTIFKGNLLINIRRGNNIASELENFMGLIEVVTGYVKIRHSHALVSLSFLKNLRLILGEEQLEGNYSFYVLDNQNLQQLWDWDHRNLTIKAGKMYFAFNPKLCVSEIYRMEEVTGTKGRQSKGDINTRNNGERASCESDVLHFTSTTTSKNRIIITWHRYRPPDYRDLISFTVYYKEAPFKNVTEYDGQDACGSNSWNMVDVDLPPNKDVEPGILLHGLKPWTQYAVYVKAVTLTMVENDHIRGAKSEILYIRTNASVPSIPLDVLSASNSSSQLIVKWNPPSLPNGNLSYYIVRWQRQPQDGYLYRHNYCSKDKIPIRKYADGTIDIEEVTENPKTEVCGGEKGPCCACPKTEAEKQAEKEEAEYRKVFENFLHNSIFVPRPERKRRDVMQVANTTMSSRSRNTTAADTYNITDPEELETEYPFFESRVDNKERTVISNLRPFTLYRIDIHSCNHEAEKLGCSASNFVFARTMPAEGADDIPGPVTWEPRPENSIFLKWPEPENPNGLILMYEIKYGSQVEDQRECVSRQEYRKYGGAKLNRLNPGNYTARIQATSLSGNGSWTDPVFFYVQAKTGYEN
# Experiment: blocking ELISA on coated hIGF1R-His; blocked ligand: biotinylated human IGF-II
# Experimental: (§1) Blocking assays were performed to determine whether the anti-IGF1R antibodies can block the binding between IGF1R and its ligand IGF-1 and IGF-2. Specifically, the microwell plates were coated with 100 μl/well of 5 μg/mL hIGF1R-His in pH 9.6 carbonate buffer, overnight at 4° C. Plates were blocked with at 200 μl/well of 1% bovine serum albumin and incubated at 37° C. for 2 hours. Serially diluted anti-IGF1R antibodies (0.005-10 μg/mL in 3-fold serial dilution plus buffer blank) were added to the plates at 100 μL/well. After a 1.5-hour incubation, Biotinylated Human IGF-I Protein (Acro Biosystems, Cat #: IG1-H82F7) or Biotinylated Human IGF-I Protein was replaced with Biotinylated Human IGF-II Protein (Acro Biosystems, Cat #: IG2-H82Q6) were added to the plates at 100 μL/well. After a 1.5-hour incubation at 37° C., HRP Streptavidin (Biolegend, Cat #: 405210) at 1:3000 dilution was added to the plates at 100 μL/well and incubated for 1 hour. Plates were washed 5 times and 100 μL of TMB was added to each well, and incubated for 10 minutes. 100 uL of 1M Phosphoric Acid was then added to each well and ELISA plates were read at 450/570 nm wavelength. A fitting curve was obtained using Log (antibody concentration (M)) as the X-axis and […] as the Y-axis.
IC50 [nM],Max inhibition (%) (10 µg/mL),Binder
1.9,81,B1
5.2,73,B2
1.7,76,B3
1.6,88,B4

# Biological target: T2, His-tagged human IGF1R protein (ACRO …)
# Experiment: SPR (Biacore 8K) on captured hIGF1R-His, binder injected second (Analyte 2); competitor injected first (Analyte 1): 12D1
# Experimental: Epitope binding assays were performed using Biacore™ 8K biosensor to determine whether two anti-IGF1R antibodies target the same or overlapping epitopes. 1×HBS-EP+ buffer (10 mM 4-(2-hydroxyethyl)-1-piperazineethanesulfonic acid (HEPES), 150 mM NaCl, 3 mM ethylenediaminetetraacetic acid (EDTA) and 0.05% P20, pH7.4) diluted from HBS-EP+buffer (10×) was used as the running buffer throughout the experiment. About 50 RU of hIGF1R-His was captured at a flow rate of 10 μL/min, and 200 nM of the tested antibody (Analyte 1) was injected at a flow rate of 30 uL/min to bind the ligand. Another comparison antibody (Analyte 2) was injected under the same conditions to determine whether the binding of different antibodies interfered with each other. The binding time was 180 s for each antibody.
# The binding value of each antibody was obtained using Biacore Insight Evaluation (Version: 2.0.15.12933). To quantify the interference of one antibody binding to another, a binding ratio was calculated to compare each pair of antibodies. The binding ratio is defined as the binding value of the second antibody (Analyte 2) divided by the binding value of the first antibody (Analyte 1). The threshold to determine the block or non-block is 0.3.
row,binding ratio (Analyte 2 / Analyte 1),Binder
1,-0.02,B1
2,-0.02,B2
3,0.02,B3
4,-0.01,B4

# Biological target: T1, human IGF1R (insulin-like growth factor …)
# Experiment: cell-based or functional assay
# Remark: another data set of the same source
IC50 of inhibition of IGF-1-induced proliferation (NCI-H838 cells) [nM],Max inhibition (%) (10 µg/mL) of IGF-1-induced proliferation (NCI-H838 cells),Binder
0.045,105,B1
0.091,88,B2
0.14,117,B3
0.064,145,B4

# Biological target: His-tagged cynomolgus monkey IGF1R protein (ACRO Biosystems Inc., Cat #: IGR-C5225) (cynomolgus monkey)
# Experiment: SPR (Biacore 8K), antibody captured on Protein A chip, antigen as analyte, 1:1 model
Kd [nM],koff [s⁻¹],kon [M⁻¹ s⁻¹],Binder
0.568,1.05e-05,18400,B1
8.57,0.000237,27600,B2
2.1,1.75e-05,8360,B3
2.79,1.8e-05,6450,B4

# Biological target: T3, human insulin receptor INSR on cells (human, UniProt P06213 28-1382)
# T3 construct: Expressed on CHO-S cells; also called hINSR; CHO-S-hINSR cells
# T3 sequence (P06213 other isoform, or with tags, fused parts or gaps limits assumed): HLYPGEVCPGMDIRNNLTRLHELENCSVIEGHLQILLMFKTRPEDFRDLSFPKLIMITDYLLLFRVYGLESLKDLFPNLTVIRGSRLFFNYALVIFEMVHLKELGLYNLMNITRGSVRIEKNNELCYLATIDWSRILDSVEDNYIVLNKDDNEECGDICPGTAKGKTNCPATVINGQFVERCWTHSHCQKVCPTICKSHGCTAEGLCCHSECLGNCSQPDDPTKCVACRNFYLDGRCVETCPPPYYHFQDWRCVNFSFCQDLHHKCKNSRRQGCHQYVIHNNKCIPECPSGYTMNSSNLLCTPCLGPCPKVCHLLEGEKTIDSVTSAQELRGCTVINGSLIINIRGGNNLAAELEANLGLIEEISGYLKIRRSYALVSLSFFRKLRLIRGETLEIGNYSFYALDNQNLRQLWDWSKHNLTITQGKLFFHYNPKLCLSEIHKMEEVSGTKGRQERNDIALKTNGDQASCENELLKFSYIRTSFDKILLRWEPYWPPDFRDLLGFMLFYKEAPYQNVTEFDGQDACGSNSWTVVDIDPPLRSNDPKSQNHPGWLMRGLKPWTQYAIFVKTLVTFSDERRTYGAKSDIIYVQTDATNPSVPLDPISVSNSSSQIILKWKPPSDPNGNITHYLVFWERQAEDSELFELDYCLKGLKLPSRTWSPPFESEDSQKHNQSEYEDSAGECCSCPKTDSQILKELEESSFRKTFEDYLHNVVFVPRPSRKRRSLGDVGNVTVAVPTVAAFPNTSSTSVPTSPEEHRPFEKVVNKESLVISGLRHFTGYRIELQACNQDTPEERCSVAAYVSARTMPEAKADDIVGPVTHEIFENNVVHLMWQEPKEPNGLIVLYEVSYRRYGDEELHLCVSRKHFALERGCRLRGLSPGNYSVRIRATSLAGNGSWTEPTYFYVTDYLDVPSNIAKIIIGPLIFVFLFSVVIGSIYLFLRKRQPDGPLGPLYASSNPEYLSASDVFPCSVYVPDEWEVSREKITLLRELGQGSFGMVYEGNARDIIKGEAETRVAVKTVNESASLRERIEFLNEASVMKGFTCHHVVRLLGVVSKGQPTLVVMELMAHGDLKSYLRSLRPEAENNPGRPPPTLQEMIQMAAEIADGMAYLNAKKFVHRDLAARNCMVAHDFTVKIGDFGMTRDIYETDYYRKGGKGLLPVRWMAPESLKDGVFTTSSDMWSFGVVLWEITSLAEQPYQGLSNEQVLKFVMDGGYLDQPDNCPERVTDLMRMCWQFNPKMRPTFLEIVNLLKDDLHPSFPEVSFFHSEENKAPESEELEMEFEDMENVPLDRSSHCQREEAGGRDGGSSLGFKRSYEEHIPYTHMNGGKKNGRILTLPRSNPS
# Experiment: flow cytometry on CHO-S-hINSR cells
# Experimental: INSR (insulin receptor) and IGF1R are both members of the superfamily of receptor tyrosine kinases (RTKs). The binding activity of anti-IGF1R antibodies to human IGF1R, human INSR and monkey IGF1R was verified by flow cytometry. Briefly, CHO-S-hIGF1R cells (expressing human IGF1R (SEQ ID NO: 45), CHO-S-fasIGF1R cells (expressing cynomolgus monkey IGF1R (SEQ ID NO: 46) and CHO-S-hINSR (expressing SEQ ID NO: 47) were plated in a 96-well plate at a density of 2×10⁵ cells/well respectively. Purified anti-IGF1R antibody with a concentration of 20 μg/mL was added to each well and was incubated at 4° C. for 30 minutes. Then, after one wash with PBS, the cells were incubated with the secondary antibody Alexa Fluor® 647 anti-human IgG Fcγ (Jackson ImmunoResearch Laboratories, Inc., Cat #: 109-606-170) at 4° C. for 15 minutes before flow cytometry analysis. Human IgG1 was used as ISO control.
row,binding result,Binder
1,no binding (tested: 20 µg/mL),B1
2,no binding (tested: 20 µg/mL),B2
3,no binding (tested: 20 µg/mL),B3
4,no binding (tested: 20 µg/mL),B4

# Biological target: T2, His-tagged human IGF1R protein (ACRO …)
# Experiment: blocking ELISA on coated hIGF1R-His; blocked ligand: biotinylated human IGF-I
# Experimental: as §1
IC50 [nM],Max inhibition (%) (10 µg/mL),Binder
2,50,B1
1.6,43,B2
1.3,47,B3
2.2,55,B4

# Biological target: T2, His-tagged human IGF1R protein (ACRO …)
# Experiment: SPR (Biacore 8K), antibody captured on Protein A chip, antigen as analyte, 1:1 model
# Experimental: The affinity of the anti-IGF1R antibodies to His-tagged human IGF1R protein (hIGF1R-His, ACRO Biosystems Inc., Cat #: IGR-H5229) and His-tagged cynomolgus monkey IGF1R protein (cIGF1R-His, ACRO Biosystems Inc., Cat #: IGR-C5225) were measured using surface plasmon resonance (SPR) using Biacore™ (Biacore, Inc., Piscataway N.J.) 8K biosensor equipped with pre-immobilized Protein A sensor chips.
# Purified anti-IGF1R antibodies were captured on the Protein A chip (Series S Sensor Chip Protein A) for the detection. 1 μg/mL or 10 μg/mL purified anti-IGF1R antibodies was loaded at 10 μL/min to bind to a gradient concentration of recombinant hIGF1R-His or cIGF1R-His (400 nM, 200 nM, 100 nM, 50 nM, 25 nM, 12.5 nM, 6.25 nM, 3.125 nM). The flow rate was 30 μL/min, the binding and dissociation time were set to 180 s and 800 s or 1200 s, respectively. The chip was regenerated after the last injection of each titration with a glycine solution (pH 2.0) at 30 μL/min for 30 seconds.
Kd [nM],koff [s⁻¹],kon [M⁻¹ s⁻¹],Binder
0.214,5.69e-06,26600,B1
3.99,0.000162,40700,B2
1.63,1.26e-05,7750,B3
1.72,1.05e-05,6120,B4
